Measured values published in patent US20240190935A1 (EAST CAROLINA UNIVERSITY, published 2024).

T1: human truncated-sCD25 (aa1-212 of NP_000408, C-terminal 8-histidine) (human, UniProt P01589 22-212)
T1 construct: range 1-212; Secreted from stably transfected HEK293F cells and purified on Ni-NTA; No signal peptide cleavage site is stated; also called hCD25-trunc
T1 sequence: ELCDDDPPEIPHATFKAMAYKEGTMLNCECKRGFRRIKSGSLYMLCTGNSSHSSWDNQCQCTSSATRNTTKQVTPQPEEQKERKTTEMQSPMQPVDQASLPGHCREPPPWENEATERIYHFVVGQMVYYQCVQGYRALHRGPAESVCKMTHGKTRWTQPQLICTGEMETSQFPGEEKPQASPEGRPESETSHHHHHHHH

T2: human sCD25(C213T) (aa1-240 of NP_000408 with C213T, C-terminal 8-histidine) (human, UniProt P01589 22-240)
T2 construct: range 1-240; Secreted from stably transfected HEK293F cells and purified on Ni-NTA; the inserted alanine shifts positions in the construct by one; No signal peptide cleavage site is stated; also called hCD25-C213T
T2 sequence: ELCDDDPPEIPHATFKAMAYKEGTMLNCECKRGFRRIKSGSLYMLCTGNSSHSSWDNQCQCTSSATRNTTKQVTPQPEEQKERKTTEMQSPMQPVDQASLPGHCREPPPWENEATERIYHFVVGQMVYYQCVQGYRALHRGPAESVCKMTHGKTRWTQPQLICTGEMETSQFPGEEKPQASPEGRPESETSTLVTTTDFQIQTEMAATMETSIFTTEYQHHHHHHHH

B1: recombinant murine IL-2 (accession number NP_032392) (ligand, mouse, UniProt P04351 21-169, looked up)
chain: APTSSSTSSSTAEAQQQQQQQQQQQQHLEQLLMDLQELLSRMENYRNLKLPRMLTFKFYLPKQATELKDLQCLEDELGPLRHVLDLTQSKSFQLEDAENFISNIRVTVVKLKGSDNTFECQFDDESATVVDFLRRWIAFCQSIISTSPQ
notes: also called mouse IL-2; mIL-2
B2: mouse sCD25 (murine soluble CD25, aa1-208 of NP_032393, C-terminal 8-histidine) (receptor)
chain: ELCLYDPPEVPNATFKALSYKNGTILNCECKRGFRRLKELVYMRCLGNSWSSNCQCTSNSHDKSRKQVTAQLEHQKEQQTTTDMQKPTQSMHQENLTGHCREPPPWKHEDSKRIYHFVEGQSVHYECIPGYKALQRGPAISICKMKCGKTGWTQPQLTCVDEREHHRFLASEESQGSRNSSPESETSHHHHHHHH
notes: range 1-208; Secreted from stably transfected HEK293F cells and purified on Ni-NTA; The construct is defined as aa1-208, signal peptide included; also called murine sCD25; mCD25

Experiments:
[1] = target: B2; test: SPR (Biacore T200), steady-state fit; mouse IL-2 (1000-3.9 nM) injected over immobilized mouse sCD25; mean ± SD of three injection series
Method: (§1) SPR experiments were performed on a Biacore T200 instrument at 25° C. using a flowrate of 30 μL min-1 in a running buffer of HBS-T (10 mM HEPES (pH 7.3), 140 mM NaCl, 0.005% Tween 20). Proteins were immobilized on a CMD200 biosensor chip (Xantec Bioanalytics) using ethyl-3-(3-dimethylaminopropyl)-carbodiimide (EDC)/N-hydroxysuccinimide/(NHS) coupling chemistry. […] A reference surface was created by EDC/NHS activation followed by a seven-minute injection of 1 M ethanolamine (pH 8.5). […] Surfaces were regenerated to baseline by injection of 2M NaCl for three minutes. Each injection series was performed in triplicate. The resulting reference-corrected sensorgrams were blank subtracted using an injection of HBS-T and fit to a steady-state model of binding using T200 Evaluation software. KD values and Rₘₐₓ values are reported as the mean±standard deviation (SD). All figures were prepared using Graphpad Prism 8.0.

[2] = target: T1, human truncated-sCD25 (aa1-212 of …); test: SPR (Biacore T200), steady-state fit; mouse IL-2 (1000-3.9 nM) injected over immobilized human truncated-sCD25; mean ± SD of three injection series [cont'd.) C]
Method: as §1

[3] = target: T2, human sCD25(C213T) (aa1-240 of …; test: SPR (Biacore T200), steady-state fit; mouse IL-2 (1000-3.9 nM) injected over immobilized human sCD25(C213T); mean ± SD of three injection series [cont'd.) B]
Method: as §1

[4] = target: T3, anti-mouse CD25-BV421 mAb (clone PC61); test: Flow cytometry competition: mouse sCD25 (1-1000 nM) pre-incubated with BV421-PC61 for 1 h at 4 °C, then HEK cells expressing full-length mouse CD25 added; blocked: binding of the mAb to CD25 on the cells
T3 construct: Commercial fluorochrome-conjugated mAb (Biolegend), mouse-specific; also called BV421-PC61; anti-mouse CD25 mAb
Method: Then, HEKs expressing full-length transmembrane mouse CD25 or human CD25 were added to each tube and incubated for 1 hour at 4° C. and subsequently washed with HBSS two times prior to analyzing surface bound anti-CD25 mAbs by flow cytometry.

Kd [1] [nM] | Kd [2] [nM] | Kd [3] [nM] | IC50 (read off the curve) [4] [nM] | Binder
250 | 740 | 430 | – | B1
– | – | – | ~5 | B2
